The values below come from the Immune Epitope Database (IEDB).

The target in one assay is HLA-A*01:01. The assay is described as follows: IEDB peptide-MHC binding, purified MHC/direct/fluorescence; filed as Kd, often an IC50 or EC50 that approximates it; ≥ and ≤ were set here for values at or beyond the usual limits of such assays.
The next assay deals with HLA-A*02:01. The assay is described as above.
Another assay deals with HLA-A*03:01. Described as above.
Assay [1] has as its target HLA-A*11:01. The description is as above.
Assay [2] concerns the target HLA-A*31:01. The assay is described as above.
In a further assay the target is HLA-A*69:01. The assay is described as above.
The next assay concerns the target HLA-B*07:02. Described as above.
The target in the next assay is HLA-B*08:02. Described as above.
A further assay concerns the target HLA-B*15:01. The description is as above.
Assay [3] addresses HLA-B*15:17. The assay is described as above.
The next assay has as its target HLA-B*18:01. The assay is described as above.
The next assay addresses HLA-B*27:05. The assay is described as above.
Another assay has as its target HLA-B*40:01. The description is as above.
In a further assay the target is HLA-B*46:01. Described as above. The settings on record: source organism: Vibrio cholerae.
Another assay concerns the target HLA-B*48:01. The assay is described as above.
The next assay has as its target HLA-B*51:01. The assay is described as above.
Assay [4] deals with HLA-B*57:01. The description is as above.
The target in assay [5] is HLA-B*58:01. Described as above.
For assay [6], the target named is HLA-B*15:09. The assay is described as follows: IEDB peptide-MHC binding, purified MHC/competitive/fluorescence; filed as Kd, often an IC50 or EC50 that approximates it; ≥ and ≤ were set here for values at or beyond the usual limits of such assays. As to conditions: source organism: Vibrio cholerae 2740-80.
Assay [7] deals with HLA-B*39:01. The description is as above. As to conditions: source organism: Vibrio cholerae 2740-80.
In assay [8] the target is HLA-B*57:01. The assay is described as follows: IEDB peptide-MHC binding, purified MHC/competitive/fluorescence; ≥ and ≤ were set here for values at or beyond the usual limits of such assays. The settings on record: source organism: Homo sapiens.
For assay [9], the target named is HLA-B*58:01. The experiment in a line: IEDB peptide-MHC binding, cellular MHC/competitive/fluorescence; ≥ and ≤ were set here for values at or beyond the usual limits of such assays. As to conditions: source organism: Human herpesvirus 4 strain B95-8.
For a further assay, the target named is HLA-A*26:01. The experiment in a line: IEDB peptide-MHC binding, purified MHC/direct/fluorescence; filed as Kd, often an IC50 or EC50 that approximates it; ≥ and ≤ were set here for values at or beyond the usual limits of such assays. The settings on record: source organism: Bacillus cereus H3081.97.
In assay [10] the target is HLA-A*26:02. The assay is described as above. The settings on record: source organism: Bacillus cereus H3081.97.
Assay [11] deals with HLA-B*15:09. Described as above. As to conditions: source organism: Bacillus cereus H3081.97.
Another assay concerns the target HLA-B*38:01. The description is as above. The settings on record: source organism: Bacillus cereus H3081.97.
The target of assay [12] is HLA-B*39:01. The assay is described as above.
For assay [13], the target named is HLA-A*11:01. The experiment in a line: IEDB peptide-MHC binding, purified MHC/competitive/fluorescence; filed as Kd, often an IC50 or EC50 that approximates it; ≥ and ≤ were set here for values at or beyond the usual limits of such assays. As to conditions: source organism: Bacillus thuringiensis serovar sotto str. T04001.
The target in the next assay is HLA-A*30:01. The description is as above. The settings on record: source organism: Bacillus thuringiensis serovar sotto str. T04001.
The target in assay [14] is HLA-A*31:01. The assay is described as above. As to conditions: source organism: Bacillus thuringiensis serovar sotto str. T04001.
A further assay has as its target HLA-B*08:01. The assay is described as above. As to conditions: source organism: Bacillus thuringiensis serovar sotto str. T04001.
The target of assay [15] is HLA-B*15:17. The description is as above.
For the next assay, the target named is HLA-B*44:02. The assay is described as follows: IEDB peptide-MHC binding, purified MHC/direct/fluorescence; filed as Kd, often an IC50 or EC50 that approximates it; ≥ and ≤ were set here for values at or beyond the usual limits of such assays.
The target of assay [16] is HLA-A*26:03. The assay is described as follows: IEDB peptide-MHC binding, purified MHC/competitive/fluorescence; filed as Kd, often an IC50 or EC50 that approximates it; ≥ and ≤ were set here for values at or beyond the usual limits of such assays. As to conditions: source organism: Influenza A virus.
A further assay addresses HLA-B*53:01. The experiment in a line: IEDB peptide-MHC binding, purified MHC/competitive/fluorescence; ≥ and ≤ were set here for values at or beyond the usual limits of such assays. As to conditions: source organism: Human immunodeficiency virus 1.
For assay [17], the target named is HLA-A*26:03. The assay is described as follows: IEDB peptide-MHC binding, purified MHC/direct/fluorescence; filed as Kd, often an IC50 or EC50 that approximates it; ≥ and ≤ were set here for values at or beyond the usual limits of such assays. The settings on record: source organism: Variola virus.
For assay [18], the target named is HLA-A*26:02. The experiment in a line: IEDB peptide-MHC binding, purified MHC/competitive/fluorescence; filed as Kd, often an IC50 or EC50 that approximates it; ≥ and ≤ were set here for values at or beyond the usual limits of such assays. As to conditions: source organism: Vaccinia virus Tian Tan.
In a further assay the target is HLA-A*68:02. The assay is described as above. The settings on record: source organism: Vaccinia virus Tian Tan.
In the next assay the target is HLA-B*73:01. The assay is described as above. As to conditions: source organism: Brucella abortus S19.
The mark [19] stands for this setting: source organism: Vibrio cholerae.
The mark [20] stands for this setting: source organism: Bacillus anthracis.
The mark [21] stands for this setting: source organism: Bacillus cereus H3081.97.
The mark [22] stands for this setting: source organism: Influenza A virus (A/chicken/Thailand/LV1NF/2004(H5N1)).
[23] abbreviates: source organism: Camelpox virus CMS.

As for FPLTQRDVL, the Kd (in general, a measure of binding affinity in units of concentration) in the assay with HLA-A*01:01 (setting [19]) is at least 20 µM; with HLA-A*02:01 (setting [19]), at least 20 µM; with HLA-A*03:01 (setting [19]), at least 20 µM; with HLA-A*11:01 [1] (setting [19]), at least 20 µM; with HLA-A*31:01 [2] (setting [19]), at least 20 µM; with HLA-A*69:01 (setting [19]), 0.719 µM. For the same sequence, the Kd was 0.046 µM in the assay with HLA-B*07:02 (setting [19]); at least 20 µM with HLA-B*08:02 (source organism: Vibrio cholerae V52); at least 20 µM in the assay with HLA-B*15:01 (setting [19]); at least 20 µM with HLA-B*15:17 [3] (setting [19]); 1.9 µM with HLA-B*18:01 (setting [19]); at least 20 µM with HLA-B*27:05 (setting [19]). The Kd was at least 20 µM with HLA-B*40:01 (setting [19]); at least 20 µM with HLA-B*46:01; at least 20 µM with HLA-B*48:01 (setting [19]); 2.82 µM with HLA-B*51:01 (setting [19]); at least 20 µM with HLA-B*57:01 [4] (setting [19]); at least 20 µM in the assay with HLA-B*58:01 [5] (setting [19]). For the same sequence, the Kd in the assay with HLA-B*15:09 [6] came out at 0.358 µM; with HLA-B*39:01 [7] it was 0.0144 µM.
Take STIRLLTSL: the IC50 (in general, the concentration at which inhibition is half-maximal) in the assay with HLA-B*57:01 [8] turned out to be 0.853 µM.
As to ATLNICNFW, the IC50 with HLA-B*58:01 [9] is 5 µM.
Take TVIRFWHAM: the dissociation constant (Kd) is at least 20 µM with HLA-A*01:01 (setting [20]); at least 20 µM in the assay with HLA-A*02:01 (setting [20]); at least 20 µM in the assay with HLA-A*03:01 (setting [20]); 0.012 µM with HLA-A*26:01; at most 0.001 µM with HLA-A*26:02 [10]; at most 0.001 µM in the assay with HLA-A*69:01 (setting [20]). Besides, the Kd is 1.81 µM with HLA-B*07:02 (setting [20]); at least 20 µM with HLA-B*08:02 (setting [21]); 0.0207 µM with HLA-B*15:01 (setting [20]); 6.04 µM with HLA-B*15:09 [11]; at least 20 µM with HLA-B*27:05 (setting [20]); at least 20 µM in the assay with HLA-B*38:01. Besides, the Kd with HLA-B*39:01 [12] (setting [21]) was 0.05 µM; with HLA-B*40:01 (setting [20]), at least 20 µM; with HLA-B*48:01 (setting [20]) it was at least 20 µM; in the assay with HLA-B*51:01 (setting [21]), at least 20 µM; with HLA-B*57:01 [4] (setting [20]), 0.593 µM; with HLA-B*58:01 [5] (setting [20]), 0.074 µM. Moreover, the Kd with HLA-A*11:01 [13] is 0.0979 µM; in the assay with HLA-A*30:01 it was 0.168 µM; with HLA-A*31:01 [14] it was 0.0344 µM; with HLA-B*08:01, at least 20 µM; with HLA-B*15:17 [15] (source organism: Bacillus thuringiensis serovar sotto str. T04001), 0.293 µM.
In the case of EMIWDPNGW, the Kd with HLA-A*01:01 (setting [22]), with HLA-A*02:01 (setting [22]), in the assay with HLA-A*03:01 (setting [22]), in the assay with HLA-A*11:01 [1] (setting [22]), with HLA-A*31:01 [2] (setting [22]) and with HLA-A*69:01 (setting [22]) was at least 20 µM throughout. The equilibrium dissociation constant (Kd) with HLA-B*07:02 (setting [22]) was at least 20 µM; with HLA-B*15:01 (setting [22]) it was at least 20 µM; with HLA-B*15:17 [3] (setting [22]) it was at least 20 µM; with HLA-B*18:01 (setting [22]) it was 2 µM; with HLA-B*27:05 (setting [22]), at least 20 µM; in the assay with HLA-B*39:01 [12] (source organism: Influenza A virus (A/chicken/Hebei/706/2005(H5N1))), at least 20 µM. Further, the Kd was at least 20 µM with HLA-B*40:01 (setting [22]); at least 20 µM with HLA-B*44:02 (setting [22]); at least 20 µM in the assay with HLA-B*48:01 (setting [22]); at least 20 µM in the assay with HLA-B*57:01 [4] (setting [22]); 0.185 µM in the assay with HLA-B*58:01 [5] (source organism: Influenza A virus (A/Puerto Rico/8/34/Mount Sinai(H1N1))); at least 20 µM in the assay with HLA-A*26:03 [16].
WPVKVIHT registered an IC50 in the assay with HLA-B*53:01 of at least 20 µM.
In the case of REVFYFGKF, the Kd with HLA-A*01:01 (setting [23]), with HLA-A*02:01 (setting [23]), with HLA-A*11:01 [1] (setting [23]), in the assay with HLA-A*26:03 [17], with HLA-A*31:01 [2] (setting [23]) and with HLA-A*69:01 (setting [23]) was at least 20 µM throughout. In addition, the Kd in the assay with HLA-B*07:02 (setting [23]) is at least 20 µM; in the assay with HLA-B*18:01 (setting [23]), 0.813 µM; with HLA-B*27:05 (setting [23]) it was at least 20 µM; with HLA-B*40:01 (setting [23]), 0.0617 µM; in the assay with HLA-B*44:02 (setting [23]), at least 20 µM; with HLA-B*48:01 (setting [23]), at least 20 µM. Further, the Kd is at least 20 µM with HLA-B*57:01 [4] (setting [23]); at least 20 µM with HLA-B*58:01 [5] (setting [23]); 2.35 µM in the assay with HLA-A*26:02 [18]; 3.04 µM with HLA-A*68:02; at least 20 µM with HLA-B*15:17 [15] (source organism: Vaccinia virus Tian Tan).
The sequence NEAWGKKPV came in with a Kd with HLA-B*73:01 of at least 20 µM.
